Measurements reported in US7223537B2, “Detection of molecular interactions by reporter subunit complementation” (The Board of Trustees of the Leland Stanford Junior …, priority 1997, dated 2007).
Values belong to the compound of their own block, whether it stands above or below them.

What was measured:
[1] = tested on: T1, human EGF receptor; assay: EGF receptor dimerization monitored by β-gal complementation (FACS) in C2F3 mouse myoblasts expressing chimeric receptors; format: cell-based
T1 construct: transmembrane domains of the human EGF receptor (amino acids 1–655) was amplified; expressed in transfected cells; host or cells: C2F3 mouse myoblasts, retrovirally transduced (pWZL-Δα-neo, pWZL-Δω-hygro), selected clone
Text: (§1) Construction of chimeric receptors. The weakly complementing Δα and Δω deletion mutants of β-gal were each linked to a polypeptide sequence containing the extracellular and transmembrane domains of the human EGF receptor to form chimeric receptor molecules. The chimeric receptors lacked the cytoplasmic domain, and attendant tyrosine kinase activity, of the native receptor. The procedure was as follows. The sequence coding for the extracellular and transmembrane domains of the human EGF receptor (amino acids 1–655) was amplified by polymerase chain reaction (PCR) using primers that incorporated an NcoI site at the 5′ end and an XhoI site at the 3′ end of the PCR product. Although this fragment retains threonine 654, which is a site of protein kinase C (PKC) phosphorylation, arginines 656 and 657 are removed, destroying the consensus PKC recognition sequence. The amino acid sequence beginning with threonine 654 is thr-leu-glu-ser-met, with the met residue being the beginning of the β-gal sequence. The glu and ser codons are generated by the junction sequence and are not native to either EGF or β-gal.
(§2) DNAs encoding the chimeric receptors were inserted into a retroviral vector also encoding a selectable marker. For the construct containing the EGF receptor-Δα fusion, the selectable marker was the neo gene, encoding G418 resistance; while the EGF receptor-Δω fusion specified hygromycin resistance (FIG. 1B). Accordingly, the EGF receptor PCR product was digested and cloned into the NcoI and XhoI sites of the pWZL-Δα and pWZL-Δω vectors. The pWZL-Δα-neo and pWZL-Δω-hygro plasmids were constructed by cloning the lacZ Δα and Δω deletion mutants into pWZL-neo and pWZL-hygro, respectively. Mohler et al., supra; and Rossi et al. (1997) Proc. Natl. Acad. Sci. USA 94:8405–8410. Plasmids were transfected into φNX cells using Lipofectamine (Life Technologies), and virus-containing supernatant was harvested 48–72 hours later. C2F3 mouse myoblasts (Rastinejad et al. (1993) Cell 72:903–917) maintained in DME with 20% fetal bovine serum (FBS) in 10% CO2, were infected by overnight incubation in the viral supernatant. Cells containing both constructs were selected in 1 mg/ml G418 plus 1 mg/ml hygromycin, and were maintained in 400 μg/ml of each antibiotic.
(§3) EGF treatment and FACS analysis Cells were treated with mouse salivary gland EGF (Sigma) at 100 ng/ml and in some experiments were treated with tyrphostin AG1478 (Calbiochem) at 100 nM. Following all treatments, cells were rinsed with phosphate buffered saline (PBS), trypsinized, and resuspended in PBS+5% FBS. Fluorescein di-β-D-galactopyranoside (FDG; Molecular Probes) was loaded into the cells by hypotonic shock as described. Fiering et al. (1991) Cytometry 12:291–301 and Nolan et al. (1988) Proc. Natl. Acad. Sci. USA 85:2603–2607. Cells were kept on ice until analysis on the cell sorter, which was conducted 1 to 2 hours after trypsinization.
(§4) The chimeric receptor was detected by immunofluorescence using a monoclonal mouse anti-human EGF receptor antibody diluted 1:100 (clone EGFR1, Dako) and either phycoerythrin-labeled horse anti-mouse IgG (Vector) or fluorescein-labeled goat anti-mouse IgG (Cappel) diluted 1:100. Cells were trypsinized and stained in PBS+5% FBS. For each sample, FACS analysis data was collected for 5000 cells. Cells were cloned on a Becton-Dickinson FACS Vantage and analyzed on a Becton-Dickinson FACS can at the Stanford Shared FACS Facility. Data analysis was facilitated by FlowJo software (Tree Star, Inc.). Data shown here as FACS profiles were adjusted for autofluorescence using autofluorescence compensation. Alberti et al. (1987) Cytometry 8:114–119. Mean fluorescence data were adjusted for autofluorescence and for endogenous mammalian β-gal activity by subtracting the mean fluorescence of untransduced cells loaded with FDG substrate.

[2] = biological target: T2, human EGF receptor (Homo sapiens, UniProt P00533); assay: as above; format: cell-based
T2 construct: transmembrane domains of the human EGF receptor (amino acids 1–655) was amplified; expressed in transfected cells; host or cells: C2F3 mouse myoblasts, retrovirally transduced (pWZL-Δα-neo, pWZL-Δω-hygro), selected clone
Text: as §1, §2, §3, §4

T1 sequence (Q01279 25-1210): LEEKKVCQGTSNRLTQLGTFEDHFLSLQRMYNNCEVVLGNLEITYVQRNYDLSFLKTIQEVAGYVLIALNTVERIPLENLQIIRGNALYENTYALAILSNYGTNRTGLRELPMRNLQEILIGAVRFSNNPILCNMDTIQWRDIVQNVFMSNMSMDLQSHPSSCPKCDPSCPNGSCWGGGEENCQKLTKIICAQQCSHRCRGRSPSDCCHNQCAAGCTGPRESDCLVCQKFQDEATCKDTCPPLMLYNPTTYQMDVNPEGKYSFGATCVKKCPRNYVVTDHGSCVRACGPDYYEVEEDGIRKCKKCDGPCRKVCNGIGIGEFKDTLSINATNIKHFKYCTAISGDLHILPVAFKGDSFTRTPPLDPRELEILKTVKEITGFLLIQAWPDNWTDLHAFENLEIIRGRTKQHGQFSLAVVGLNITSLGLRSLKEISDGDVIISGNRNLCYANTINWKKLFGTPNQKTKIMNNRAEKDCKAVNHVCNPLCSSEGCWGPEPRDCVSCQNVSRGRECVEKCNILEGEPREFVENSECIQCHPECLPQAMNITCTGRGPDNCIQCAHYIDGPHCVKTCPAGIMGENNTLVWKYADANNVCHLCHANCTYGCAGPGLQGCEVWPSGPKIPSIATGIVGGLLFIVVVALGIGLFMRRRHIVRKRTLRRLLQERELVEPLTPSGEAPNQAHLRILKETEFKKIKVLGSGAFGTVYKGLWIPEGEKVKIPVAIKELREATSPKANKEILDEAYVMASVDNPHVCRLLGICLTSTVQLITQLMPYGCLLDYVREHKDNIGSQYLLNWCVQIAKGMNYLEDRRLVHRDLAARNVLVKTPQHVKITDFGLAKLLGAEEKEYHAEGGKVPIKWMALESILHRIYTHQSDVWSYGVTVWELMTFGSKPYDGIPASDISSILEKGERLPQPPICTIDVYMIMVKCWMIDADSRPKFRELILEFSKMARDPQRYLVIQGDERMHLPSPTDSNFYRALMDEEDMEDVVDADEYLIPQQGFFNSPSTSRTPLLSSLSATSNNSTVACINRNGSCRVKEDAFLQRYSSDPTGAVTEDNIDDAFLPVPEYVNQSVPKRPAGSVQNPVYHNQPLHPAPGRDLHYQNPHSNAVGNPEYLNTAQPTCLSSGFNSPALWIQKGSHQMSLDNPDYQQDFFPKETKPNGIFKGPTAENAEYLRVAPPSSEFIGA

Compound: COc1cc2ncnc(Nc3cccc(Cl)c3)c2cc1OC [tyrphostin AG1478, reference compound]
β-gal activity of cells given tyrphostin and EGF versus EGF alone ([1]; 100 nM tyrphostin AG1478 + 100 ng/ml EGF, treatment times of up to 6 hours, FIG. 9B): greater β-gal activity than cells that received EGF alone | difference in EGF receptor dimerization between EGF and EGF+tyrphostin treated cells ([1]; by 8 hours of treatment): no difference | effect of repeated administration of tyrphostin on the increased β-gal activity ([1]; tyrphostin every four hours): did not further prolong the increased β-gal activity

Compound: EGF: mouse salivary gland EGF (Sigma)
time at which dimerization peaked ([2]; 100 ng/ml EGF for 0 to 24 hours, FIG. 8): 2 to 4 h | increase in β-gal activity (chimeric receptor dimerization) in selected clone ([2]; 100 ng/ml EGF for two hours, FIG. 7E): several-fold increase | shortest EGF treatment at which dimerization could be detected ([2]; 100 ng/ml EGF, mean fluorescence, FIG. 7F): one | amount of chimeric receptor on the cell surface (immunofluorescence, FACS) ([2]; 100 ng/ml EGF, over the period that dimerization decreased, FIG. 8): remained essentially constant | response (dimerization) to a second EGF treatment ([2]; during the decline in dimerization, EGF still present): minimal

Compound: betacellulin: EGF-like growth factor that binds and activates the EGF receptor
dimerization of chimeric EGF receptor following stimulation with EGF-like growth factor [2]: Dimerization was also observed

Next, values leading:

dimerization of chimeric EGF receptor following stimulation with EGF-like growth factor [2]: Dimerization was also observed
Compound: TGF-α: EGF-like growth factor that binds and activates the EGF receptor

dimerization of chimeric EGF receptor following stimulation with EGF-like growth factor [2]: Dimerization was also observed
Compound: heparin-binding EGF-like growth factor: EGF-like growth factor that binds and activates the EGF receptor
